Experimental data: patent US20210301025A1 (published 2021)
Like-named read-outs stand apart in the source and are kept apart here.

Experiments:
[1] = target: T1, human c-Met on cells (NCI-H441, NCI-H292, U87-MG) (human, UniProt P08581 25-1390); assay: cell-based or functional assay
[2] = target: T2, Recombinant human c-Met Fc chimera (human, UniProt P08581 16-932); assay: competition with biotinylated HGF on plate-coated c-Met-Fc
T2 construct: whole c-Met entry named; also called c-Met-Fc fusion protein

[3] = target: T3, recombinant c-Met extracellular domain (human, UniProt P08581 16-932); assay: SPR kinetic analysis as in Example 2
T3 construct: Construct used for SPR is not described further (may be the Fc chimera, as the protocol captures on anti-human Fc)

[4] = target: T1, human c-Met on cells (NCI-H441, …); assay: NCI-H441 cell binding, anti-His fluorescence
Protocol: Purified FN3 domains (50 μL/well; 0 to 1000 nM) were added to the cells for 1 hour at 4° C. in duplicate plates. Supernatant was removed and cells were washed three times with FACS stain buffer (150 μL/well, BD Biosciences, cat #554657). Cells were incubated with biotinylated-anti HIS antibody (diluted 1:160 in FACS stain buffer, 50 μL/well, R&D Systems, cat # BAM050) for 30 minutes at 4° C. Cells were washed three times with FACS stain buffer (150 μL/well), after which wells were incubated with anti mouse IgG1-Alexa 488 conjugated antibody (diluted 1:80 in FACS stain buffer, 50 μL/well, Life Technologies, cat # A21121) for 30 minutes at 4° C. Cells were washed three times with FACS stain buffer (150 μL/well) and left in FACS stain buffer (50 μL/well). Total fluorescence was determined using an Acumen eX3 reader. Data were plotted as raw fluorescence signal against the logarithm of the FN3 domain molar concentration and fitted to a sigmoidal dose-response curve with variable slope using GraphPad Prism 4 (GraphPad Software) to calculate EC₅₀ values.

[5] = target: human EGFR on cells (A431, NCI-H292, NCI-H322, NCI-H441) (human, UniProt P00533 25-1210); assay: cell-based or functional assay
[6] = target: T1, human c-Met on cells (NCI-H441, …); assay: cell-based or functional assay; remark: listed apart in the source
[7] = target: T3, recombinant c-Met extracellular domain; assay: SPR (ProteOn) per Example 3
From the text: (§1) Select EGFR/c-Met molecules were characterized for their affinity to both EGFR and c-Met, their ability to inhibit EGFR and c-Met autophosphorylation, and their effect on proliferation of HGF cells. Binding affinity of the bispecific EGFR/c-Met molecules to recombinant EGFR and/or c-Met extracellular domain was further by surface Plasmon resonance methods using a Proteon Instrument (BioRad) according to protocol described in Example 3.

[8] = target: T4, recombinant human extracellular domain of EGFR fused to an IgG1 Fc (human, UniProt P00533 25-645); assay: SPR (ProteOn) per Example 3
T4 construct: Bought (R&D Systems); captured on anti-human Fc IgG for SPR; also called EGFR-Fc
From the text: as §1

| Binder | pMet inhibition in H441 cells IC50 [1] [nM] | IC50 [2] [nM] | Kd [3] [nM] | Inhibition of proliferation of U87-MG cells IC50 [1] [nM] | EC50 [4] [nM] | pEGFR inhibition in H292 cells IC50 [5] [nM] | pMet inhibition in H441 cells IC50 [6] [nM] | Kd [7] [nM] | Kd [8] [nM] |
| --- | --- | --- | --- | --- | --- | --- | --- | --- | --- |
| P114AR7P95-D3 (designed binder, not shown: small tags and cut ends) LPAPKNLVVSRVTEDSARLSWTAPDAAFDSFWIRYFEFLGSGEAIVLTVPGSERSYDLTGLKPGTEYVVNIMGVKGGSISYPLSAIFTT | 4.6 | 0.2 | 0.3 | – | – | – | – | – | – |
| P114AR7P92-F6 (designed binder, not shown: small tags and cut ends) LPAPKNLVVSRVTEDSARLSWTAPDAAFDSFWIRYFEFLGSGEAIVLTVPGSERSYDLTGLKPGTEYVVNILGVKGGGLSVPLSAIFTT | 165 | 2.2 | 3.1 | 350 | 4.9 | – | – | – | – |
| P114AR7P92-H5 (designed binder, not shown: small tags and cut ends) LPAPKNLVVSRVTEDSARLSWTAPDAAFDSFWIRYLEFLLGGEAIVLTVPGSERSYDLTGLKPGTEYVVQIMGVKGGTVSPPLSAIFTT | 766 | – | 11.6 | 672 | 22 | – | – | – | – |
| P114AR7P93-D11 (designed binder, not shown: small tags and cut ends) LPAPKNLVVSRVTEDSARLSWTAPDAAFDSFWIRYFEFLGSGEAIVLTVPGSERSYDLTGLKPGTEYVVGINGVKGGYISYPLSAIFTT | 16 | – | – | 14.4 | 2.3 | – | – | – | – |
| P114AR7P93-G8 (designed binder, not shown: small tags and cut ends) LPAPKNLVVSRVTEDSARLSWTAPDAAFDSFWIRYFEFLGSGEAIVLTVPGSERSYDLTDLKPGTEYGVTINGVKGGRVSTPLSAIFTT | 460 | 1 | 6.9 | 104 | 3.8 | – | – | – | – |
| P114AR7P92-G8 (designed binder, not shown: small tags and cut ends) LPAPKNLVVSRVTEDSARLSWTAPDAAFDSFVIRYFEFLGSGEAIVLTVPGSERSYDLTGLKPGTEYVVQILGVKGGYISIPLSAIFTT | 155 | 1.6 | 1 | 124 | 5.9 | – | – | – | – |
| P114AR5P75-E9 (designed binder, not shown: small tags and cut ends) LPAPKNLVVSRVTEDSARLSWTAPDAAFDSFFIRYDEFLRSGEAIVLTVPGSERSYDLTGLKPGTEYWVTILGVKGGLVSTPLSAIFTT | 1420 | 51.9 | 45.8 | 1190 | – | – | – | – | – |
| P114AR7P92-F3 (designed binder, not shown: small tags and cut ends) LPAPKNLVVSRVTEDSARLSWTAPDAAFDSFWIRYFEFLGSGEAIVLTVPGSERSYDLTGLKPGTEYIVNIMGVKGGSISHPLSAIFTT | 8.3 | 0.2 | 0.4 | 2.7 | – | – | – | – | – |
| ECB95 (designed binder, not shown: small tags and cut ends, Bispecific: P54AR4-83v22, (AP)5, P114AR9P121-A6v2) MLPAPKNLVVSEVTEDSARLSWDDPWAFYESFLIQYQESEKVGEAIVLTVPGSERSYDLTGLKPGTEYTVSIYGVHNVYKDTNIRGLPLSAIFTTAPAPAPAPAPLPAPKNLVVSRVTEDSARLSWTAPDAAFDSFWIRYFEFVGSGEAIVLTVPGSERSYDLTGLKPGTEYVVNILGVKGGSISPPLSAIFTT | – | – | – | – | – | 13.6 | 179 | 6.2 | 1.1 |

The next lines start with the values.

| pMet inhibition in H441 cells IC50 [1] [nM] | IC50 [2] [nM] | Kd [3] [nM] | Inhibition of proliferation of U87-MG cells IC50 [1] [nM] | EC50 [4] [nM] | pEGFR inhibition in H292 cells IC50 [5] [nM] | pMet inhibition in H441 cells IC50 [6] [nM] | Kd [7] [nM] | Kd [8] [nM] | Binder |
| --- | --- | --- | --- | --- | --- | --- | --- | --- | --- |
| 205 | – | – | 209 | 3.2 | – | – | – | – | P114AR7P95-E3 (designed binder, not shown: small tags and cut ends) LPAPKNLVVSRVTEDSARLSWTAPDAAFDSFWIRYFEFLGSGEAIVLTVPGSERSYDLTGLKPGTEYVVQIMGVKGGTVSPPLSAIFTT |
| 288 | 2.9 | 3.3 | 270 | 12.9 | – | – | – | – | P114AR7P93-H9 (designed binder, not shown: small tags and cut ends) LPAPKNLVVSRVTEDSARLSWTAPDAAFDSFWIRYFEFLGSGEAIVLTVPGSERSYDLTGLKPGTEYVVQIIGVKGGHISLPLSAIFTT |
| 124 | 0.7 | 4.2 | 196 | 3.4 | – | – | – | – | P114AR7P94-E5 (designed binder, not shown: small tags and cut ends) LPAPKNLVVSRVTEDSARLSWTAPDAAFDSFWIRYFEFLGSGEAIVLTVPGSERSYDLTGLKPGTEYAVNIMGVKGGRVSVPLSAIFTT |
| 659 | – | 20 | 692 | 11.3 | – | – | – | – | P114AR7P95-G7 (designed binder, not shown: small tags and cut ends) LPAPKNLVVSRVTEDSARLSWTAPDAAFDSFWIRYFELLSTGEAIVLTVPGSERSYDLTGLKPGTEYVVNIMGVKGGSISPPLSAIFTT |
| 9.8 | 0.3 | – | 17.4 | – | – | – | – | – | P114AR7P95-B9 (designed binder, not shown: small tags and cut ends) LPAPKNLVVSRVTEDSARLSWTAPDAAFDSFWIRYFEFLGSGEAIVLTVPGSERSYDLTGLKPGTEYVVQILGVKGGSISVPLSAIFTT |
| 210 | – | 3.7 | 281 | 4.1 | – | – | – | – | P114AR7P95-H8 (designed binder, not shown: small tags and cut ends) LPAPKNLVVSRVTEDSARLSWTAPDAAFDSFWIRYFEFVSKGEAIVLTVPGSERSYDLTGLKPGTEYVVNIMGVKGGSISPPLSAIFTT |
| 19.5 | – | 0.4 | 19.4 | 1.4 | – | – | – | – | P114AR7P95-D4 (designed binder, not shown: small tags and cut ends) LPAPKNLVVSRVTEDSARLSWTAPDAAFDSFWIRYFEFLGSGEAIVLTVPGSERSYDLTGLKPGTEYVVQILGVKGGYISIPLSAIFTT |
| 5 | 0.2 | 0.4 | 9.3 | 1.4 | – | – | – | – | P114AR7P94-A3 (designed binder, not shown: small tags and cut ends) LPAPKNLVVSRVTEDSARLSWTAPDAAFDSFWIRYFEFLGSGEAIVLTVPGSERSYDLTGLKPGTEYVVNIMGVKGGKISPPLSAIFTT |
| 188 | 1.4 | 4.2 | 130 | 4.4 | – | – | – | – | P114AR7P95-F10 (designed binder, not shown: small tags and cut ends) LPAPKNLVVSRVTEDSARLSWTAPDAAFDSFWIRYFEFTTAGEAIVLTVPGSERSYDLTGLKPGTEYVVNIMGVKGGSISPPLSAIFTT |
| – | – | – | – | – | 24.7 | 835 | 22.1 | 1.6 | ECB96 (designed binder, not shown: small tags and cut ends, Bispecific: P54AR4-83v22, (AP)5, P114AR9P122-A7v2) MLPAPKNLVVSEVTEDSARLSWDDPWAFYESFLIQYQESEKVGEAIVLTVPGSERSYDLTGLKPGTEYTVSIYGVHNVYKDTNIRGLPLSAIFTTAPAPAPAPAPLPAPKNLVVSRVTEDSARLSWTAPDAAFDSFWIRYFEFVSKGDAIVLTVPGSERSYDLTGLKPGTEYVVNILGVKGGSISPPLSAIFTT |
| – | – | – | – | – | 4.2 | – | 2.6 | 0.2 | ECB15 (designed binder, not shown: small tags and cut ends) MLPAPKNLVVSEVTEDSARLSWDDPWAFYESFLIQYQESEKVGEAIVLTVPGSERSYDLTGLKPGTEYTVSIYGVHNVYKDTNMRGLPLSAIFTTAPAPAPAPAPLPAPKNLVVSRVTEDSARLSWTAPDAAFDSFWIRYFEFLGSGEAIVLTVPGSERSYDLTGLKPGTEYVVNIMGVKGGKISPPLSAIFTT |
| – | – | – | – | – | 5.1 | 53.8 | 4.3 | 1 | ECB94 (designed binder, not shown: small tags and cut ends, Bispecific: P54AR4-83v22, (AP)5, P114AR7P94-A3v22) MLPAPKNLVVSEVTEDSARLSWDDPWAFYESFLIQYQESEKVGEAIVLTVPGSERSYDLTGLKPGTEYTVSIYGVHNVYKDTNIRGLPLSAIFTTAPAPAPAPAPLPAPKNLVVSRVTEDSARLSWTAPDAAFDSFWIRYFEFLGSGEAIVLTVPGSERSYDLTGLKPGTEYVVNILGVKGGKISPPLSAIFTT |
